The text below walks through data of patent US5866124.

This assay addresses murine anti-HMW-MAA monoclonal antibody 763.74. The assay can be described thus: ELISA on plates coated with MAb 763.74, culture supernatant, detected with alkaline phosphatase-conjugated anti-human γ.

B1: chimeric antiidiotypic monoclonal antibody MK2-CHγ1 (antibody, V domains shown)
VH: LQESGGGLVQPGGSRKLSCAASGFTFSSFGMHWVRQAPEKGLEWVAYISSDSSNIYYADTVKGRFTISRDNPKNTLFLQMTSLRSEDTAMYYCARSNYVGYHVRWYFDVWGQGTTVT
VL: QLTQSPASLAVSLGQRVTISCRASESVEYYGSSLMQWYQQKPGQPPKLLIYAASNVESGVPARFSGSGSGTDFSLNIHPVEEDDIAMYFCQQSRKIPYTFGGGTKLEI
Molecule B1 showed an A405 of 0.78 A405.
